What was measured:
[1] = target: CD38 antigen on the cell surface (Daudi cells; NCI-H929 cells) (human) (UniProt P28907); test: cell-based or functional assay
[2] = target: CD38 (human), analyte in Biacore (human) (UniProt P28907); test: SPR (Biacore 8K), antibody captured on Protein A chip, CD38 as analyte, 25℃

Row | Substance | ADCC reporter (Jurkat-Lucia-NFAT-CD16 + NCI-H929), EC50(μg/mL) [1] | ADCC reporter (Jurkat-Lucia-NFAT-CD16 + NCI-H929), Top MFI [1] | Kd [2]
1 | Isotype control (antibody) | 0.375 µg/mL | 2120 | 
2 | RB0021 PC(Daratumumab) (antibody) | 0.017 µg/mL | 57200 | 0.0886 µM

Reference: patent CN114075285A
